Patent US20200384109A1 (published 2020)

How the values were obtained:
Test in all cases: SET
[1] = biological target: BKV serotype I (ST1) virus-like particles (VLPs) (UniProt P03088 1-362)
[2] = biological target: BKV serotype III (ST3) virus-like particles (VLPs) (UniProt P14996 1-362)
[3] = biological target: BKV serotype II (ST2) virus-like particles (VLPs) (UniProt P14996 1-362)
[4] = biological target: BKV serotype IV (ST4) virus-like particles (VLPs) (UniProt P14996 1-362)

B1: NOV530 (antibody, V domains shown)
VH: QVQLQESGPGLVKPSQTLSLTCTVSGGSISGGGYYWSWIRQHPGKGLEFIGYIYYNRGTYYNPALKSRLTISVDTSKNDFSLKLSSVSAADTAVYYCARCVLGGYGSDAFDRWGQGTTVTVAS
VL: EIVLTQSPVTLSLSPGERAILSCRASQSVSSHLAWYQQKPGQAPRLLIYDASSRANGIPARFSGSGSGTDFTLTISSLAPEDFAVYYCQQRSSWPPSLTFGGGTKVEIRR
[1]
  Kd: 15 pM

B2: NOV796 (antibody, V domains shown)
VH: QVQLVQSGPGLVKPSETLSLTCSVSGGSISGYYWSWIRQPPGKGLEWIGLIYESGSANYNPSLKSRVTISLDTSKNQFSLKLKSVTAADTAVYYCARRVRGWSYGMDVWGQGTTVAVSS
VL: DIVLTQSPGTLSLSPGETATLSCRASQILSSSFLAWFQQIPGQAPRLLIYAASSRATGIPDRFSGSGSGTDFSLTISRLEPEDFAVYYCQHYGSSPPWTFGQGTKVEIKR
[2]
  Kd: 7 pM
[3]
  Kd: 6 pM
[4]
  Kd: 0.9 pM
[1]
  Kd: 3 pM

B3: NOV581 (antibody, V domains shown)
VH: QVQLVESGGGLVQPGGSLRLSCVASGFTFSGYNMHWVRQAPGKGLEWVSYISNSGRTIYYADSVKGRFTLSRDNAKNSLYLQMNSLRAEDTAVYFCARDRDPQWLGNDALQIWGQGTMVTVSS
VL: EIVLTQSPGTLSLSPGERATLSCRASQSVSSGYLAWYQQKPGQAPRLLIYGASSRATGIPDRFSGSGSGTDFTLTISRLEPEDFAVYYCQQYGTSRKTFGQGTKVEIKR
[2]
  Kd: 92 pM
[3]
  Kd: 69 pM
[4]
  Kd: > 6600 pM
[1]
  Kd: 44 pM
